Measurements published in patent US20250025478.

What was measured:
[1] = biological target: 3×-FLAG-RNF213
[2] = biological target: 3×-FLAG-RNF213^Y1275F
3×-FLAG-RNF213^Y1275F, sequence (chain, as listed by the source Y1275F): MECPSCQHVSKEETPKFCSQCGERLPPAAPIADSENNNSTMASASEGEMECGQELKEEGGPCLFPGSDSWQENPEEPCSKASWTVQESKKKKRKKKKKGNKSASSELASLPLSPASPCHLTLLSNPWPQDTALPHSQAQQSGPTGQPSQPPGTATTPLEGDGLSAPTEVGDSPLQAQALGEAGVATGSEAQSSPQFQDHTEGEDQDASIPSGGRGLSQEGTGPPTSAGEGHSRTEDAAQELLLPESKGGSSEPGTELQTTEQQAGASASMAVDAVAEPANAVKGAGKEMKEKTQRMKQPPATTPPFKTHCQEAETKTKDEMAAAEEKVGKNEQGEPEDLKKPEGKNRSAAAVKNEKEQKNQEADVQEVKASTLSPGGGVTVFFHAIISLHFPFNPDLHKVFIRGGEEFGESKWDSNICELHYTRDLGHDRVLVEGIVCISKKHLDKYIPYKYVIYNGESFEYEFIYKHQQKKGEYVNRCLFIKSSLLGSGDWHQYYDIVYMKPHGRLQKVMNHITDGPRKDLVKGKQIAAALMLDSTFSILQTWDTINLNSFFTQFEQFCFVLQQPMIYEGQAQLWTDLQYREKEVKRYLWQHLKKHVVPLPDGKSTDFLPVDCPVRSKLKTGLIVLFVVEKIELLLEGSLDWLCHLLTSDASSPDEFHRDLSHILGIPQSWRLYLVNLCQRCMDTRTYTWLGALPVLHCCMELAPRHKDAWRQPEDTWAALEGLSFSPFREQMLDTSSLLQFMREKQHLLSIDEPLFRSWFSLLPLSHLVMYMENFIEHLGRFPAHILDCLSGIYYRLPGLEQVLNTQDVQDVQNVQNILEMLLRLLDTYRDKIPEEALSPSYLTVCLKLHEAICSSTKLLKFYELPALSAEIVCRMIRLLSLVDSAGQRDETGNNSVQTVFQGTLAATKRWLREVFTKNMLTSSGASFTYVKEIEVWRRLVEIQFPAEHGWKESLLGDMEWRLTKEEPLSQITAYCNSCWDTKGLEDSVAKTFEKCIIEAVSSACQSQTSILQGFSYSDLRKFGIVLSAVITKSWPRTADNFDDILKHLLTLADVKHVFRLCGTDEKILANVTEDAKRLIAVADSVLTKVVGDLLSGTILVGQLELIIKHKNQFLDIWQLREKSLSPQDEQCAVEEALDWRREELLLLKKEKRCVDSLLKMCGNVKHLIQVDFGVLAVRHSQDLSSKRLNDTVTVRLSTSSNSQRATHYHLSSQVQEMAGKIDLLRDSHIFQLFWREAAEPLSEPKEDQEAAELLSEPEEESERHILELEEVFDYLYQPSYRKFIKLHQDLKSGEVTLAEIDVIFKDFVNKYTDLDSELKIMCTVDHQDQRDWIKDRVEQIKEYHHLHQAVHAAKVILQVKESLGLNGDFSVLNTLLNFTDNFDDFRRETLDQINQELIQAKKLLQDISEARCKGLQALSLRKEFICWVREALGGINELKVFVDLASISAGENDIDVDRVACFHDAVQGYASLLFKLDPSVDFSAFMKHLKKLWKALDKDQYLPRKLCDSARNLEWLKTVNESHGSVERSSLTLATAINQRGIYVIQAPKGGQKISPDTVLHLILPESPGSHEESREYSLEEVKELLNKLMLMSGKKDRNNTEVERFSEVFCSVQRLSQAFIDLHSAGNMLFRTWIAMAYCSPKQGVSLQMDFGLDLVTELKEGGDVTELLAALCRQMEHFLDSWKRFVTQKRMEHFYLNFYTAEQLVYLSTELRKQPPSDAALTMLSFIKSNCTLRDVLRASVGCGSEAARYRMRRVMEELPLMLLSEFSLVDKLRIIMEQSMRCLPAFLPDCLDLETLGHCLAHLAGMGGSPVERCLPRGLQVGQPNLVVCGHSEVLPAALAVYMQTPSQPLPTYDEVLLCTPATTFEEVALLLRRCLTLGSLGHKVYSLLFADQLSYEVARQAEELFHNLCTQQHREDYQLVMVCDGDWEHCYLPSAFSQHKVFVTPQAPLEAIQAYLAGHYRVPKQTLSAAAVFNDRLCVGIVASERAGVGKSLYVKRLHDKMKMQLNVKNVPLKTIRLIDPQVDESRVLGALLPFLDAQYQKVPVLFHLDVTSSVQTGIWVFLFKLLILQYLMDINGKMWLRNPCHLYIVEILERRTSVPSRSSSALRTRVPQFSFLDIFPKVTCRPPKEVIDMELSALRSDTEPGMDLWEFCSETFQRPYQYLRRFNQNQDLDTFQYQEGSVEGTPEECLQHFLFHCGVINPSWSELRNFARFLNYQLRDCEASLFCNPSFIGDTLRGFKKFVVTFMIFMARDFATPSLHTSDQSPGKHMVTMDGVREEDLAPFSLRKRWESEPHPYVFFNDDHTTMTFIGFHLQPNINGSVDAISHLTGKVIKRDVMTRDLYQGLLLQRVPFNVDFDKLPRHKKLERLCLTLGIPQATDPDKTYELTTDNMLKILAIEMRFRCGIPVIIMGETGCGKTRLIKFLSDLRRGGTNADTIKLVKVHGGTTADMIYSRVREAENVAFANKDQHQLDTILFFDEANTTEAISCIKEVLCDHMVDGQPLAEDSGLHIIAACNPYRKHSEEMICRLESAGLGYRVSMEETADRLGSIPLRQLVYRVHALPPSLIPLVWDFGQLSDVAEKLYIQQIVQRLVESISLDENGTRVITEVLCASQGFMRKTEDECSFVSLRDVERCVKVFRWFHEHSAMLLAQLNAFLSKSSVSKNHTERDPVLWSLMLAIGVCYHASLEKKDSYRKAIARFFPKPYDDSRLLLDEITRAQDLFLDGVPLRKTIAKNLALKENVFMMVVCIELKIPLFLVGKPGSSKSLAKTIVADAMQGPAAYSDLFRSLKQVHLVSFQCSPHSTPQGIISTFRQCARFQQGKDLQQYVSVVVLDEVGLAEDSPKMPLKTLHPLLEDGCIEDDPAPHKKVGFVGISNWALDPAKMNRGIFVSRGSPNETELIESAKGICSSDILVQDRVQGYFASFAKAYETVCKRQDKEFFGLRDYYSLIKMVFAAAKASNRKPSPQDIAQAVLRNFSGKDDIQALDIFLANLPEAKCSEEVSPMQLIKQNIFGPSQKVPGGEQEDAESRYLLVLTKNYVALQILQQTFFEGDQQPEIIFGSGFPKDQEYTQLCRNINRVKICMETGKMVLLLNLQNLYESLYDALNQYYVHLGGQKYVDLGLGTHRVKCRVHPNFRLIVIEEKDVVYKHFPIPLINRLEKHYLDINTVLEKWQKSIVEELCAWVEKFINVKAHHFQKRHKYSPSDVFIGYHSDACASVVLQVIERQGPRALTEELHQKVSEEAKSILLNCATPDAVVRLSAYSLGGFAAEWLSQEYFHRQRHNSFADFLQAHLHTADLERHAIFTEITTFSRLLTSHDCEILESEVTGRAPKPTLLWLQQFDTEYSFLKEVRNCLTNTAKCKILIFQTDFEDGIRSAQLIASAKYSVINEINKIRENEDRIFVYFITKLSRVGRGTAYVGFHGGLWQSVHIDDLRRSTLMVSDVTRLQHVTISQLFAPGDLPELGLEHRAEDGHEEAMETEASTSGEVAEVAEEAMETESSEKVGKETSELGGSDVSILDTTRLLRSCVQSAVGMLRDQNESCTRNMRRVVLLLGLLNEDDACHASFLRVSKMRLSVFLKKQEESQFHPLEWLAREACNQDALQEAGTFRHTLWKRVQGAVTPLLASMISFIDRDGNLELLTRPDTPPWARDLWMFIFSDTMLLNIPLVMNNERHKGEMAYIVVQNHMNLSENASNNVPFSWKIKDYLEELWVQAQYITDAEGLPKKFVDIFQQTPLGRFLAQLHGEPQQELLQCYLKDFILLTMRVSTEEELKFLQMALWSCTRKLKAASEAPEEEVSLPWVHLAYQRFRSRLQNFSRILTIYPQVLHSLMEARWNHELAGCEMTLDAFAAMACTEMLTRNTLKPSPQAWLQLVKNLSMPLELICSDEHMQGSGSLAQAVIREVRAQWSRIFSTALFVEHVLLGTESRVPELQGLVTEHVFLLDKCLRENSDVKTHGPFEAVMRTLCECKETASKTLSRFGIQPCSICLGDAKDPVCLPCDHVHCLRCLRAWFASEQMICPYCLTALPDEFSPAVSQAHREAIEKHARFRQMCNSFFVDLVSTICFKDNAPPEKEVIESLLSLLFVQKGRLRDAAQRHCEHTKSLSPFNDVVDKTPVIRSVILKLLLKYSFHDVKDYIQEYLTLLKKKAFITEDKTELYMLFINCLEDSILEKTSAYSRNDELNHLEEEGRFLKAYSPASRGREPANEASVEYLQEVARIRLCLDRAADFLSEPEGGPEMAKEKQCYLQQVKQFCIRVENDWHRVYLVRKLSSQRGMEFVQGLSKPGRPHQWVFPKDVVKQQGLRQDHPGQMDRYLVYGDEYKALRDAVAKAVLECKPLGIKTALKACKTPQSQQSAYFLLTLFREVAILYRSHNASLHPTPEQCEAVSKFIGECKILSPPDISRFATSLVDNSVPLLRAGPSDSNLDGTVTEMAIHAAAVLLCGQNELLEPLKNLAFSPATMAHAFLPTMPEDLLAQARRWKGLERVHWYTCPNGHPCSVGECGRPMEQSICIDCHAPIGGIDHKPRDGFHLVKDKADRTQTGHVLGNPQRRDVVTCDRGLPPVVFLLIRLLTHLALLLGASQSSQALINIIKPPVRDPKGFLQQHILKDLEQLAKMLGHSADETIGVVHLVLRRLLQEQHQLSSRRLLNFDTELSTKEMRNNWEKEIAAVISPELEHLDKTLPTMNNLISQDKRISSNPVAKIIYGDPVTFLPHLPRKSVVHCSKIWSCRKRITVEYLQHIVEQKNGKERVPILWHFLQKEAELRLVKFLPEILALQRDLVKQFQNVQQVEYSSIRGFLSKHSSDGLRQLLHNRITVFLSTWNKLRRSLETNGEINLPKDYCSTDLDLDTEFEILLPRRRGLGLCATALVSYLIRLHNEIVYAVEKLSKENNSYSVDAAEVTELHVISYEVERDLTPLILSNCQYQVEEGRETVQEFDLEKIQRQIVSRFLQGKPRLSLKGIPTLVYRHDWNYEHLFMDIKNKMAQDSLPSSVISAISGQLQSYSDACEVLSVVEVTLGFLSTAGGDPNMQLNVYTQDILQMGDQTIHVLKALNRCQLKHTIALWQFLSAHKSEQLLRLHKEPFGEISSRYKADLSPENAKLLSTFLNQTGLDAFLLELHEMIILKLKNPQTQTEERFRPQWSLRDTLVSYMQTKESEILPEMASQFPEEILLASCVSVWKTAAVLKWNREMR

B1: recombinant His-tagged ABL1 (protein)
chain: SPNYDKWEMERTDITMKHKLGGGQYGEVYEGVWKKYSLTVAVKTLKEDTMEVEEFLKEAAVMKEIKHPNLVQLLGVCTREPPFYIITEFMTYGNLLDYLRECNRQEVNAVVLLYMATQISSAMEYLEKKNFIHRDLAARNCLVGENHLVKVADFGLSRLMTGDTYTAHAGAKFPIKWTAPESLAYNKFSIKSDVWAFGVLLWEIATYGMSPYPGIDLSQVYELLEKDYRMERPEGCPEKVYELMRACWQWNPSDRPSFAEIHQAFETMFQESSISDEVEKELGK
For B1, the “in vitro kinase assay (tyrosine phosphorylation)” value [1] was “His-ABL1 phosphorylated WT-RNF213, but not RNF213^Y1275F in a time- and ABL1-concentration-dependent manner” and the “in vitro kinase assay (tyrosine phosphorylation)” value [2] was “His-ABL1 phosphorylated WT-RNF213, but not RNF213^Y1275F”.
